# Data taken from patent US20160207995A1 (Genentech, published 2016).
# Legend:
# [1] = target: T1, human interleukin-4 (IL-4) (human, UniProt P05112 25-153, biotinylated in the competition ELISAs); assay: cell-based or functional assay
# T1 sequence: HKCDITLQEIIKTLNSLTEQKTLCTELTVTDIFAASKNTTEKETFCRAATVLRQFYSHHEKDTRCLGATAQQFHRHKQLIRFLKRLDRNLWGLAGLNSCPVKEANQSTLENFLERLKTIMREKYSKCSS
# human IL-13 [2] = target: T2, human IL-13 (human, UniProt P35225 33-146, biotinylated in the IL-13Rα2 competition ELISA); assay: cell-based or functional assay
# [3] = target: T1, human interleukin-4 (IL-4); assay: SPR Biacore 3000; antibody captured on anti-human Fc, cytokine 0-50 nM injected, 25 °C, 1:1 Langmuir model
# human IL-13 [4] = target: T2, human IL-13; assay: as above
# [5] = target: T1, human interleukin-4 (IL-4); assay: competition ELISA: antibody premixed with biotinylated human IL-4 (5.8 ng/ml), then added to plate-coated human IL-4R; streptavidin-HRP, OD 450 nm
# cynomolgus monkey IL-4 = target: T3, cynomolgus monkey IL-4 (cynomolgus monkey, UniProt P79339 25-153); assay: SPR Biacore 3000; antibody captured on anti-human Fc, cytokine 0-50 nM injected, 25 °C, 1:1 Langmuir model
# T3 construct: Made at Genentech; also called cyno IL-4
# T3 sequence: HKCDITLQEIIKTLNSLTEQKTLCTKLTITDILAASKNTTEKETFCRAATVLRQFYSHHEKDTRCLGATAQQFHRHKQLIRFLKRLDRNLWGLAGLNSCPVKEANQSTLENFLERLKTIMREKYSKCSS
# human IL-13 R130Q = target: T4, human IL-13 R130Q (human, UniProt P35225 25-146, biotinylated in the IL-13Rα1 competition ELISA); assay: as above
# T4 construct: also called biotinylated IL-13 R130Q
# cynomolgus monkey IL-13 = target: T5, cynomolgus monkey IL-13 (cynomolgus monkey, UniProt Q5I6E4 19-132 (Macaca thibetana entry), limits assumed); assay: as above
# T5 construct: also called cyno IL-13
# T5 chain: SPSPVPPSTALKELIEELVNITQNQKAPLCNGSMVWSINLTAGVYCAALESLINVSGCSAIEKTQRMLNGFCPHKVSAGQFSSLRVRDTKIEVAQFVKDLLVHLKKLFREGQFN
# human IL-13 [6] = target: T2, human IL-13; assay: competition ELISA: antibody premixed with biotinylated human IL-13 (0.056 µg/ml), then added to plate-coated human IL-13Rα2-Fc; streptavidin-HRP, OD 450 nm
# [7] = target: T1, human interleukin-4 (IL-4); assay: cell-based or functional assay; remark: listed apart in the source
# [8] = target: T1, human interleukin-4 (IL-4); assay: SPR
# [9] = target: T1, human interleukin-4 (IL-4); assay: SPR (BIAcore A100): IgG captured by anti-human Fcγ antibody, recombinant IL-4 injected, 1:1 Langmuir fit
# [10] = target: T1, human interleukin-4 (IL-4); assay: SPR BIAcore A100; IgG captured on anti-human Fcγ, recombinant IL-4 injected, 1:1 model
# [11] = target: T1, human interleukin-4 (IL-4); assay: SPR Biacore
binder,measurement,setting,value
"anti-IL-4/IL-13 IgG1 bispecific antibody (knobs-into-holes) (bispecific antibody, Half antibodies made in E. coli (not glycosylated) and assembled by redox chemistry; Anti-IL-4 arm is the hole, anti-IL-13 arm the knob; also called anti-IL-4/IL-13 IgG1-isotype) heavy 1: not shown light 1: DIQMTQSPSSLSASVGDRVTITCKASQSVINDAAWYQQKPGKAPKLLIYYTSHRYTGVPSRFSGSGSGTDFTLTISSLQPEDFATYYCQQDYTSPWTFGQGTKVEIKRTVAAPSVFIFPPSDEQLKSGTASVVCLLNNFYPREAKVQWKVDNALQSGNSQESVTEQDSKDSTYSLSSTLTLSKADYEKHKVYACEVTHQGLSSPVTKSFNRGEC heavy 2: not shown light 2: DIVLTQSPDSLSVSLGERATINCRASKSVDSYGNSFMHWYQQKPGQPPKLLIYLASNLESGVPDRFSGSGSGTDFTLTISSLQAEDVAVYYCQQNNEDPRTFGGGTKVEIKRTVAAPSVFIFPPSDEQLKSGTASVVCLLNNFYPREAKVQWKVDNALQSGNSQESVTEQDSKDSTYSLSSTLTLSKADYEKHKVYACEVTHQGLSSPVTKSFNRGEC",IC50 of TF-1 proliferation inhibition assay (IL-4),[1],0.06 µg/mL
same,IC50 of TF-1 proliferation inhibition assay (IL-13),human IL-13 [2],0.03 µg/mL
same,Kd,[3],0.068 nM
same,koff,[3],8.48e-05 s⁻¹
same,kon,[3],1.34e+06 M⁻¹ s⁻¹
same,Kd,human IL-13 [4],0.023 nM
same,koff,human IL-13 [4],1.7e-05 s⁻¹
same,kon,human IL-13 [4],714000 M⁻¹ s⁻¹
"anti-IL-4/IL-13 IgG4 bispecific antibody (knobs-into-holes, S228P, wild-type R409) (bispecific antibody, Half antibodies made in E. coli (not glycosylated) and assembled by redox chemistry; also called anti-IL-4/IL-13 bispecific antibody; anti-IL-4/IL-13 IgG4-isotype) heavy 1: EVQLVESGGGLVQPGGSLRLSCAASGYTFTDYSMHWVRQAPGKGLEWVVWINTETGEPTYADSVKGRFTISLDNSKNTAYLQMNSLRAEDTAVYYCARGGIFYGMDYWGQGTLVTVSSASTKGPSVFPLAPCSRSTSESTAALGCLVKDYFPEPVTVSWNSGALTSGVHTFPAVLQSSGLYSLSSVVTVPSSSLGTKTYTCNVDHKPSNTKVDKRVESKYGPPCPPCPAPEFLGGPSVFLFPPKPKDTLMISRTPEVTCVVVDVSQEDPEVQFNWYVDGVEVHNAKTKPREEQFNSTYRVVSVLTVLHQDWLNGKEYKCKVSNKGLPSSIEKTISKAKGQPREPQVYTLPPSQEEMTKNQVSLSCAVKGFYPSDIAVEWESNGQPENNYKTTPPVLDSDGSFFLVSRLTVDKSRWQEGNVFSCSVMHEALHNHYTQKSLSLSLGK light 1: DIQMTQSPSSLSASVGDRVTITCKASQSVINDAAWYQQKPGKAPKLLIYYTSHRYTGVPSRFSGSGSGTDFTLTISSLQPEDFATYYCQQDYTSPWTFGQGTKVEIKRTVAAPSVFIFPPSDEQLKSGTASVVCLLNNFYPREAKVQWKVDNALQSGNSQESVTEQDSKDSTYSLSSTLTLSKADYEKHKVYACEVTHQGLSSPVTKSFNRGEC heavy 2: not shown light 2: DIVLTQSPDSLSVSLGERATINCRASKSVDSYGNSFMHWYQQKPGQPPKLLIYLASNLESGVPDRFSGSGSGTDFTLTISSLQAEDVAVYYCQQNNEDPRTFGGGTKVEIKRTVAAPSVFIFPPSDEQLKSGTASVVCLLNNFYPREAKVQWKVDNALQSGNSQESVTEQDSKDSTYSLSSTLTLSKADYEKHKVYACEVTHQGLSSPVTKSFNRGEC",IC50 of TF-1 proliferation inhibition assay (IL-4),[1],0.05 µg/mL
same,IC50 of TF-1 proliferation inhibition assay (IL-13),human IL-13 [2],0.03 µg/mL
same,IC50 (read off the curve),[5],~0.2 µg/mL
same,Kd,cynomolgus monkey IL-4,0.076 nM
same,koff,cynomolgus monkey IL-4,0.000151 s⁻¹
same,kon,cynomolgus monkey IL-4,2.02e+06 M⁻¹ s⁻¹
same,Kd,human IL-13 R130Q,0.142 nM
same,koff,human IL-13 R130Q,2.62e-05 s⁻¹
same,kon,human IL-13 R130Q,184000 M⁻¹ s⁻¹
same,Kd,cynomolgus monkey IL-13,0.048 nM
same,koff,cynomolgus monkey IL-13,2.83e-05 s⁻¹
same,kon,cynomolgus monkey IL-13,608000 M⁻¹ s⁻¹
same,Kd,[3],0.046 nM
same,koff,[3],0.000133 s⁻¹
same,kon,[3],2.87e+06 M⁻¹ s⁻¹
same,Kd,human IL-13 [4],0.056 nM
same,koff,human IL-13 [4],3.01e-05 s⁻¹
same,kon,human IL-13 [4],537000 M⁻¹ s⁻¹
same,IC50 (read off the curve),human IL-13 [6],~0.2 µg/mL
"mu19C11 (clone 19C11, murine anti-human IL-4 monoclonal antibody) (antibody, V domains shown, Mouse hybridoma IgG (BALB/c); Tested as hybridoma supernatant IgG or purified IgG) VH: QIQLVQSGPELKKPGETVKISCKASGYTFTDYSMHWMKQAPGKGLKWMVWINTETGEPTYADDFKGRFAFSLETSANTAYLKINNLKNEDTATYFCARGGIFYGMDYWGQGTSVTVSS VL: SIVMTQTPKFLLISAGDRVTITCKASQSVINDAAWYQQKPGQSPRLLIYYTSHRYTGVPDRFTGSGYGTDFTFTISTVQAEDLAVYFCQQDYTSPWTFGGGTKLEIKR",IC50 for blocking IL-4-induced proliferation of TF-1 cells,[7],0.014 µg/mL
same,Kd,[8],≤ 0.01 nM
"19C11 Chimera (antibody, V domains shown, also called chimeric 19C11 (mouse variable regions with human IgG constant regions)) VH: QIQLVQSGPELKKPGETVKISCKASGYTFTDYSMHWMKQAPGKGLKWMVWINTETGEPTYADDFKGRFAFSLETSANTAYLKINNLKNEDTATYFCARGGIFYGMDYWGQGTSVTVSS VL: SIVMTQTPKFLLISAGDRVTITCKASQSVINDAAWYQQKPGQSPRLLIYYTSHRYTGVPDRFTGSGYGTDFTFTISTVQAEDLAVYFCQQDYTSPWTFGGGTKLEIKR",Kd,[9],< 0.01 nM
"HuVHI / HuKI (antibody, V domains shown, also called humanized 19C11-VH1 graft/κ1 graft) VH: QVQLVQSGAEVKKPGASVKVSCKASGYTFTDYSMHWVRQAPGQGLEWMVWINTETGEPTYADDFKGRVTITRDTSTSTAYLELSSLRSEDTAVYYCARGGIFYGMDYWGQGTLVTVSS VL: DIQMTQSPSSLSASVGDRVTITCKASQSVINDAAWYQQKPGKAPKLLIYYTSHRYTGVPSRFSGSGSGTDFTLTISSLQPEDFATYYCQQDYTSPWTFGQGTKVEIKR",Kd,[9],0.024 nM
"HuVHIII (FLA) / HuKI (antibody, V domains shown, also called humanized 19C11-VH3.FLA/κ1 graft) VH: EVQLVESGGGLVQPGGSLRLSCAASGYTFTDYSMHWVRQAPGKGLEWVVWINTETGEPTYADDFKGRFTFSLDNSKNTAYLQMNSLRAEDTAVYYCARGGIFYGMDYWGQGTLVTVSS VL: DIQMTQSPSSLSASVGDRVTITCKASQSVINDAAWYQQKPGKAPKLLIYYTSHRYTGVPSRFSGSGSGTDFTLTISSLQPEDFATYYCQQDYTSPWTFGQGTKVEIKR",Kd,[9],0.14 nM
"HuVHIII / HuKI (antibody, V domains shown, also called humanized 19C11-VH3 graft/κ1 graft) VH: EVQLVESGGGLVQPGGSLRLSCAASGYTFTDYSMHWVRQAPGKGLEWVVWINTETGEPTYADDFKGRFTISRDNSKNTLYLQMNSLRAEDTAVYYCARGGIFYGMDYWGQGTLVTVSS VL: DIQMTQSPSSLSASVGDRVTITCKASQSVINDAAWYQQKPGKAPKLLIYYTSHRYTGVPSRFSGSGSGTDFTLTISSLQPEDFATYYCQQDYTSPWTFGQGTKVEIKR",Kd,[9],0.084 nM
"humanized 19C11-VH1.FFL/κ3 graft (antibody, V domains shown, Human IgG expressed in 293 cells; also called 19C11-VH1.FFL with 19C11-κ3 graft) VH: QVQLVQSGAEVKKPGASVKVSCKASGYTFTDYSMHWVRQAPGQGLEWMVWINTETGEPTYADDFKGRFTFTLDTSTSTAYLELSSLRSEDTAVYYCARGGIFYGMDYWGQGTLVTVSS VL: EIVLTQSPATLSLSPGERATLSCKASQSVINDAAWYQQKPGQAPRLLIYYTSHRYTGIPARFSGSGSGTDFTLTISSLEPEDFAVYYCQQDYTSPWTFGQGTKVEIKR",Kd,[10],0.011 nM
"humanized antibody 19C11-VH3.LA.SV/κ1 graft (anti-IL-4) (antibody, V domains shown, Parental (monospecific) humanized anti-IL-4 antibody; also called parental anti-IL-4 antibody; hu19C11) VH: EVQLVESGGGLVQPGGSLRLSCAASGYTFTDYSMHWVRQAPGKGLEWVVWINTETGEPTYADSVKGRFTISLDNSKNTAYLQMNSLRAEDTAVYYCARGGIFYGMDYWGQGTLVTVSS VL: DIQMTQSPSSLSASVGDRVTITCKASQSVINDAAWYQQKPGKAPKLLIYYTSHRYTGVPSRFSGSGSGTDFTLTISSLQPEDFATYYCQQDYTSPWTFGQGTKVEIKR",binding result,[11],binds
"HuVHIII / HuKIII (antibody, V domains shown, also called humanized 19C11-VH3 graft/κ3 graft) VH: EVQLVESGGGLVQPGGSLRLSCAASGYTFTDYSMHWVRQAPGKGLEWVVWINTETGEPTYADDFKGRFTISRDNSKNTLYLQMNSLRAEDTAVYYCARGGIFYGMDYWGQGTLVTVSS VL: EIVLTQSPATLSLSPGERATLSCKASQSVINDAAWYQQKPGQAPRLLIYYTSHRYTGIPARFSGSGSGTDFTLTISSLEPEDFAVYYCQQDYTSPWTFGQGTKVEIKR",Kd,[9],0.026 nM
"humanized 19C11-VH3.FLA/κ3 graft (antibody, V domains shown, Human IgG expressed in 293 cells; also called 19C11-VH3.FLA with 19C11-κ3 graft) VH: EVQLVESGGGLVQPGGSLRLSCAASGYTFTDYSMHWVRQAPGKGLEWVVWINTETGEPTYADDFKGRFTFSLDNSKNTAYLQMNSLRAEDTAVYYCARGGIFYGMDYWGQGTLVTVSS VL: EIVLTQSPATLSLSPGERATLSCKASQSVINDAAWYQQKPGQAPRLLIYYTSHRYTGIPARFSGSGSGTDFTLTISSLEPEDFAVYYCQQDYTSPWTFGQGTKVEIKR",Kd,[10],0.011 nM
